Measurements reported in article doi:10.1101/386532 (bioRxiv, 2018).
One block for each binder: values may come before it.

B1: IST1(1–189) (IST1NTD) (domain or fragment, human, UniProt P53990 1-189, looked up)
chain: MLGSGFKAERLRVNLRLVINRLKLLEKKKTELAQKARKEIADYLAAGKDERARIRVEHIIREDYLVEAMEILELYCDLLLARFGLIQSMKELDSGLAESVSTLIWAAPRLQSEVAELKIVADQLCAKYSKEYGKLCRTNQIGTVNDRLMHKLSVEAPPKILVERYLIEIAKNYNVPYEPDSVVMAEAPP

Key:
[1] = molecular target: the molecule itself; experiment: negative stain EM of filament assembly
[2] = molecular target: T1, GST-CHMP1B(4–199) (WT) (human, UniProt Q7LBR1 4-199); experiment: SPR
T1 sequence (looked up): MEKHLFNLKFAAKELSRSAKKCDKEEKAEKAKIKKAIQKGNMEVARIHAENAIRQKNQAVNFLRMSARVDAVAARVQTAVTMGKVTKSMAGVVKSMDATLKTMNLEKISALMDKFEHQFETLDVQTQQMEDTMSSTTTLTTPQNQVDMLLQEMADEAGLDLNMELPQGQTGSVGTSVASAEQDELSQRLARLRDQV

[3] = molecular target: B1; experiment: SPR
[4] = molecular target: the molecule itself; experiment: cryo-EM structure

Binder: B1
- binding result [1]: binds
- Kd [2]: 92 µM

- Kd [3]: 91 µM
B2: GST-CHMP1Bα6 (CHMP1B MIM1 element alone, residues 186–199) (peptide, UniProt Q7LBR1 186-199, looked up)
chain: DELSQRLARLRDQV

B3: CHMP1B(4–199) for structure determination (from His-SUMO fusion) (natural protein, human, UniProt Q7LBR1 4-199, looked up)
chain: MEKHLFNLKFAAKELSRSAKKCDKEEKAEKAKIKKAIQKGNMEVARIHAENAIRQKNQAVNFLRMSARVDAVAARVQTAVTMGKVTKSMAGVVKSMDATLKTMNLEKISALMDKFEHQFETLDVQTQQMEDTMSSTTTLTTPQNQVDMLLQEMADEAGLDLNMELPQGQTGSVGTSVASAEQDELSQRLARLRDQV
- binding result [4]: binds
